Source: patent publication US20180245061A1, “Modified Heterocyclase” (THE UNIVERSITY COURT OF THE UNIVERSITY OF ABERDEEN, priority 2014, published 2018)
Where no end group is shown, it is not given here.

Columns and labels:
LynD = assay: Trans activation of LynD by exogenous leader peptide (turnover of test peptide ITACITFCAYDG); assay type: biochemical, Lyngbya sp.; details: for acceleration of turnover of the test peptide by LynD: 5.5 μM leader peptide in trans, 5 μM LynD, 100 μM ITACITFCAYDG; for heterocycles observed in test peptide with LynD plus leader in trans: overnight incubation
Experimental: (§1) For all heterocyclization reactions, […] PatE′ (and variants,) was incubated with 2 μM enzyme in 150 mM NaCl, 10 mM HEPES pH 7.4, 1 mM TCEP, 5 mM ATP and 5 mM MgCl2 for 16 h at 37° C. Samples were analyzed by ESI or MALDI MS (LCT, Micromass or 4800 MALDI TOF/TOF Analyzer, ABSciex). For cis trans activation studies, 100 μM ITACITFCAYDG synthetic test peptide (Peptide Protein Research Ltd) was reacted with 5 μM heterocyclase enzyme in the presence and absence of 5.5 μM LAELSEEAL synthetic peptide, or 5.5 μM full-length PatE′4 leader peptide. The reaction was carried out in 150 mM NaCl, 10 mM HEPES pH 7.4, 1 mM TCEP, 5 mM ATP and 5 mM MgCl2 for 16 h at 37° C. and analyzed as above. Synthetic peptides were purchased from Peptide Protein Research Ltd.
To assess the relative rates of heterocyclization under various conditions, heterocyclization reactions were monitored at regular intervals using MALDI TOF MS. In each case, reactions of PatE′ or ITACITFCAYDG synthetic peptide were prepared as described and incubated at 37° C. prior to addition of LynD allowing a 0 time-point to be recorded. Time points for each reaction were recorded as follows: For PatE′ with LynD (standard conditions), PatE′ with LynD in the presence of α-β-methelene ATP, and ITACITFCAYDG with LynD fusion, the reaction was monitored after 1, 5, 10, 15, 20, 30, 45, 60, 90, 120 and 180 minutes; For ITACITFCAYDG with LynD in the absence, and presence of either minimal leader LAELSEEAL peptide, or full length PatE′4 leader peptide, the reaction was monitored after 15, 30, 60, 120, 240 and 1440 minutes. Reactions were set up in triplicate, and each sample was analyzed by MALDI TOF MS in triplicate (9 spectra recorded in total for each reaction at each time point). For each time point, the total ion count for each species (0, 1 and 2 heterocycles) was recorded, averaged and the percentage of each species was calculated. The rate of each reaction relative to the wild-type reaction (PatE′+LynD) was determined. LC-MS of reaction mixtures was performed on a Waters LC-MS system (LCT mass spectrometer and 2795 HPLC) using a Waters MassPrep column (2.1×10 mm). Solvent B was 0.1% formic acid and Solvent A was MeCN containing 0.1% formic acid. Gradient 0-0.5 min 98% B, 0.5-2.5 min linear to 2% B, 2.5-4.5 min 2% B, 4.5-4.6 min linear to 98% B, […] 98% B at 0.05 ml min−1. The following conditions were used on the mass spectrometer: ESI +ve, capillary voltage 3.5 kV, cone voltage 40 V, mass range 500-2500 m/z, RF lens 500. The spectra were combined across the eluted protein peak and the charged ion series processed using Water's MaxEnt algorithm to give protein mass, using peak width at half height on the strongest peak in the ion envelope. […]

PatE′ = assay: Heterocyclization reaction with PatE′, MS analysis; assay type: biochemical; details: PatE′ with 2 μM enzyme, 5 mM ATP, 5 mM MgCl2, 16 h at 37° C.; TABLE 1
Chain of PatE′ (as listed by the source): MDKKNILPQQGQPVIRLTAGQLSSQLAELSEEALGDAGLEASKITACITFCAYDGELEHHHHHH
Experimental: as §1

[1] = system: ITACITFCAYDG synthetic test peptide; assay: Heterocyclization of leaderless core/test peptide ITACITFCAYDG (LCMS, MALDI TOF MS time course); assay type: biochemical
Experimental: After 16 h core peptide incubated with either TruD or LynD only 1 heterocycle is formed. In contrast when incubated with LynD fusion, the heterocyclization reaction is nearly complete—the sample containing predominantly 2 heterocycles after just 2 h. PatE′ and LynD reaction after 2 h is shown as a reference.
as §1, with “Synthetic peptides were purchased from Peptide Protein Research Ltd.” left out
To assess the relative rates of heterocyclization under various conditions, heterocyclization reactions were monitored at regular intervals using MALDI TOF MS. In each case, reactions of PatE′ or ITACITFCAYDG synthetic peptide were prepared as described and incubated at 37° C. prior to addition of LynD allowing a 0 time-point to be recorded. Time points for each reaction were recorded as follows: For PatE′ with LynD (standard conditions), PatE′ with LynD in the presence of α-β-methelene ATP, and ITACITFCAYDG with LynD fusion, the reaction was monitored after 1, 5, 10, 15, 20, 30, 45, 60, 90, 120 and 180 minutes; For ITACITFCAYDG with LynD in the absence, and presence of either minimal leader LAELSEEAL peptide, or full length PatE′4 leader peptide, the reaction was monitored after 15, 30, 60, 120, 240 and 1440 minutes. Reactions were set up in triplicate, and each sample was analyzed by MALDI TOF MS in triplicate (9 spectra recorded in total for each reaction at each time point). […] The rate of each reaction relative to the wild-type reaction (PatE′+LynD) was determined. […]

Molecule	acceleration of turnover of the test peptide by LynD (LynD) [fold]	heterocycles observed in test peptide with LynD plus leader in trans (LynD)	No. of heterocycles (PatE′) (PatE′)	further results
LAELSEEAL (ends and bridges not checked) [minimal leader, residues 26 to 34 of PatE]	5.0	both heterocycles are observed	–	–
full-length PatE leader: full-length leader peptide from trypsin digestion of quadruple mutant PatE′4 (D2Y, K3E, K4E, R16E)	6.7	both heterocycles are observed	–	–
LynD K409E: LynD point mutant K409E (protein) MQSTPLLQIQPHFHVEVIEPKQVYLLGEQANHALTGQLYCQILPLLNGQYTLEQIVEKLDGEVPPEYIDYVLERLAEKGYLTEAAPELSSEVAAFWSELGIAPPVAAEALRQPVTLTPVGNISEVTVAALTTALRDIGISVQTPTEAGSPTALNVVLTDDYLQPELAKINKQALESQQTWLLVKPVGSVLWLGPVFVPGKTGCWDCLAHRLRGNREVEASVLRQKQAQQQRNGQSGSVIGCLPTARATLPSTLQTGLQFAATEIAKWIVKYHVNATAPGTVFFPTLDGKIITLNHSILDLKSHILIKRSQCPTCGDPKILQHRGFEPLKLESRPKQFTSDGGHRGTTPEQTVQKYQHLISPVTGVVTELVRITDPANPLVHTYRAGHSFGSATSLRGLRNTLKHKSSGEGKTDSQSKASGLCEAVERYSGIFQGDEPRKRATLAELGDLAIHPEQCLCFSDGQYANRETLNEQATVAHDWIPQRFDASQAIEWTPVWSLTEQTHKYLPTALCYYHYPLPPEHRFARGDSNGNAAGNTLEEAILQGFMELVERDGVALWWYNRLRRPAVDLGSFNEPYFVQLQQFYRENDRDLWVLDLTADLGIPAFAGVSNRKTGSSERLILGFGAHLDPTIAILRAVTEVNQIGLELDKVPDENLKSDATDWLITEKLADHPYLLPDTTQPLKTAQDYPKRWSDDIYTDVMTCVNIAQQAGLETLVIDQTRPDIGLNVVKVTVPGMRHFWSRFGEGRLYDVPVKLGWLDEPLTEAQMNPTPMPF	–	–	2	–
LynD E423R: LynD point mutant E423R (protein) MQSTPLLQIQPHFHVEVIEPKQVYLLGEQANHALTGQLYCQILPLLNGQYTLEQIVEKLDGEVPPEYIDYVLERLAEKGYLTEAAPELSSEVAAFWSELGIAPPVAAEALRQPVTLTPVGNISEVTVAALTTALRDIGISVQTPTEAGSPTALNVVLTDDYLQPELAKINKQALESQQTWLLVKPVGSVLWLGPVFVPGKTGCWDCLAHRLRGNREVEASVLRQKQAQQQRNGQSGSVIGCLPTARATLPSTLQTGLQFAATEIAKWIVKYHVNATAPGTVFFPTLDGKIITLNHSILDLKSHILIKRSQCPTCGDPKILQHRGFEPLKLESRPKQFTSDGGHRGTTPEQTVQKYQHLISPVTGVVTELVRITDPANPLVHTYRAGHSFGSATSLRGLRNTLKHKSSGKGKTDSQSKASGLCRAVERYSGIFQGDEPRKRATLAELGDLAIHPEQCLCFSDGQYANRETLNEQATVAHDWIPQRFDASQAIEWTPVWSLTEQTHKYLPTALCYYHYPLPPEHRFARGDSNGNAAGNTLEEAILQGFMELVERDGVALWWYNRLRRPAVDLGSFNEPYFVQLQQFYRENDRDLWVLDLTADLGIPAFAGVSNRKTGSSERLILGFGAHLDPTIAILRAVTEVNQIGLELDKVPDENLKSDATDWLITEKLADHPYLLPDTTQPLKTAQDYPKRWSDDIYTDVMTCVNIAQQAGLETLVIDQTRPDIGLNVVKVTVPGMRHFWSRFGEGRLYDVPVKLGWLDEPLTEAQMNPTPMPF	–	–	0	–
LynD K409A: LynD point mutant K409A (protein) MQSTPLLQIQPHFHVEVIEPKQVYLLGEQANHALTGQLYCQILPLLNGQYTLEQIVEKLDGEVPPEYIDYVLERLAEKGYLTEAAPELSSEVAAFWSELGIAPPVAAEALRQPVTLTPVGNISEVTVAALTTALRDIGISVQTPTEAGSPTALNVVLTDDYLQPELAKINKQALESQQTWLLVKPVGSVLWLGPVFVPGKTGCWDCLAHRLRGNREVEASVLRQKQAQQQRNGQSGSVIGCLPTARATLPSTLQTGLQFAATEIAKWIVKYHVNATAPGTVFFPTLDGKIITLNHSILDLKSHILIKRSQCPTCGDPKILQHRGFEPLKLESRPKQFTSDGGHRGTTPEQTVQKYQHLISPVTGVVTELVRITDPANPLVHTYRAGHSFGSATSLRGLRNTLKHKSSGAGKTDSQSKASGLCEAVERYSGIFQGDEPRKRATLAELGDLAIHPEQCLCFSDGQYANRETLNEQATVAHDWIPQRFDASQAIEWTPVWSLTEQTHKYLPTALCYYHYPLPPEHRFARGDSNGNAAGNTLEEAILQGFMELVERDGVALWWYNRLRRPAVDLGSFNEPYFVQLQQFYRENDRDLWVLDLTADLGIPAFAGVSNRKTGSSERLILGFGAHLDPTIAILRAVTEVNQIGLELDKVPDENLKSDATDWLITEKLADHPYLLPDTTQPLKTAQDYPKRWSDDIYTDVMTCVNIAQQAGLETLVIDQTRPDIGLNVVKVTVPGMRHFWSRFGEGRLYDVPVKLGWLDEPLTEAQMNPTPMPF	–	–	1	–
LynD fusion: residues 21-38 of the PatE leader and an eleven residue long linker added to the N-terminus of LynD (SEQ ID NO: 39) (protein, Modified heterocyclase) MSHHHHHHDYDENLYFQGSQLSSQLAELSEEALGDAGAGAGAGAGAGAMQSTPLLQIQPHFHVEVIEPKQVYLLGEQANHALTGQLYCQILPLLNGQYTLEQIVEKLDGEVPPEYIDYVLERLAEKGYLTEAAPELSSEVAAFWSELGIAPPVAAEALRQPVTLTPVGNISEVTVAALTTALRDIGISVQTPTEAGSPTALNVVLTDDYLQPELAKINKQALESQQTWLLVKPVGSVLWLGPVFVPGKTGCWDCLAHRLRGNREVEASVLRQKQAQQQRNGQSGSVIGCLPTARATLPSTLQTGLQFAATEIAKWIVKYHVNATAPGTVFFPTLDGKIITLNHSILDLKSHILIKRSQCPTCGDPKILQHRGFEPLKLESRPKQFTSDGGHRGTTPEQTVQKYQHLISPVTGVVTELVRITDPANPLVHTYRAGHSFGSATSLRGLRNTLKHKSSGKGKTDSQSKASGLCEAVERYSGIFQGDEPRKRATLAELGDLAIHPEQCLCFSDGQYANRETLNEQATVAHDWIPQRFDASQAIEWTPVWSLTEQTHKYLPTALCYYHYPLPPEHRFARGDSNGNAAGNTLEEAILQGFMELVERDGVALWWYNRLRRPAVDLGSFNEPYFVQLQQFYRENDRDLWVLDLTADLGIPAFAGVSNRKTGSSERLILGFGAHLDPTIAILRAVTEVNQIGLELDKVPDENLKSDATDWLITEKLADHPYLLPDTTQPLKTAQDYPKRWSDDIYTDVMTCVNIAQQAGLETLVIDQTRPDIGLNVVKVTVPGMRHFWSRFGEGRLYDVPVKLGWLDEPLTEAQMNPTPMPF	–	–	–	heterocycles formed in core peptide ITACITFCAYDG ([1]; after 2 h, no leader, LCMS): 2; rate of processing both cysteines in the test peptide ([1]; compared with native LynD on full length PatE′ substrate): comparable to the full length PatE′ substrate
